# From publication PMC3660597, “Investigation of Specificity Determinants in Bacterial tRNA-Guanine Transglycosylase Reveals Queuine, the Substrate of Its Eucaryotic Counterpart, as Inhibitor” (PLoS ONE, 2013)
# Test system: Tgt "wild type" (tRNA-guanine transglycosylase) (Zymomonas mobilis)
# Experiment: MST
# Conditions: buffer, salt, pH and temperature not given in the material
substance,measurement,value
tRNATyr,Kd,36.2 nM
